The chains are these.
B1: XENP37819 TBRII-A_H1.273_L1.53 (antibody, V domains shown)
VH: QLQVQESGPGLVKPSETLSLTCTVSGGSISSSYFSWHWIRQPPGKGLEWIGSFYYGGKTYYNPSLKSRATISIDTSKNQFSLKLSSVTAADTAVYYCARGPTTIRGVIDSWGQGTLVTVSS
VL: EIVLTQSPATLSLSPGERATLSCRASQSVRSYLAWYQQKPGQAPRLLIYDASNRATGIPARFSGSGSGTDFTLTISSLEPEDFAVYYCQQRSNYPPTFGQGTKVEIK
B2: TBRII-A_H1.36_L1 (antibody, V domains shown)
VH: QLQVQESGPGLVKPSETLSLTCTVSGGSISNSYFSWSWIRQPPGKGLEWIGSFYYGEKTYYNPSLKSRATISIDTSKSQFSLKLSSVTAADTAVYYCPRGPTMIRGVIDSWGQGTLVTVSS
VL: EIVLTQSPATLSLSPGERATLSCRASQSVRSYLAWYQQKPGQAPRLLIYDASNRATGIPARFSGSGSGTDFTLTISSLEPEDFAVYYCQQRSNWPPTFGQGTKVEIK
B3: TBRII-A_H1.29_L1 (antibody, V domains shown)
VH: QLQVQESGPGLVKPSETLSLTCTVSGGSISNSYFTWGWIRQPPGKGLEWIGSFYYGEKTYYNPSLKSRATISIDTSKSQFSLKLSSVTAADTAVYYCPRGPTMIRGVIDSWGQGTLVTVSS
VL: EIVLTQSPATLSLSPGERATLSCRASQSVRSYLAWYQQKPGQAPRLLIYDASNRATGIPARFSGSGSGTDFTLTISSLEPEDFAVYYCQQRSNWPPTFGQGTKVEIK
B4: XENP37822 TBRII-A_H1.201_L1.53 (antibody, V domains shown)
VH: QLQVQESGPGLVKPSETLSLTCTVSGGSISNAYFSWGWIRQPPGKGLEWIGSFYYGGKTYYNPSLKSRATISIDTSKNQFSLKLSSVTAADTAVYYCARGPTLIRGVIDSWGQGTLVTVSS
VL: EIVLTQSPATLSLSPGERATLSCRASQSVRSYLAWYQQKPGQAPRLLIYDASNRATGIPARFSGSGSGTDFTLTISSLEPEDFAVYYCQQRSNYPPTFGQGTKVEIK
B5: XENP37814 TBRII-A_H1.189_L1.53 (antibody, V domains shown)
VH: QLQVQESGPGLVKPSETLSLTCTVSGGSISSSYFSWGWIRQPPGKGLEWIGSFYYGGKTYYNPSLKSRATISIDTSKNQFSLKLSSVTAADTAVYYCARGPTLIRGVIDSWGQGTLVTVSS
VL: EIVLTQSPATLSLSPGERATLSCRASQSVRSYLAWYQQKPGQAPRLLIYDASNRATGIPARFSGSGSGTDFTLTISSLEPEDFAVYYCQQRSNYPPTFGQGTKVEIK
B6: XENP37817 TBRII-A_H1.272_L1 (antibody, V domains shown)
VH: QLQVQESGPGLVKPSETLSLTCTVSGGSISSSYFSWGWIRQPPGKGLEWIGSFNYGGKTYYNPSLKSRATISIDTSKNQFSLKLSSVTAADTAVYYCARGPTTIRGVIDSWGQGTLVTVSS
VL: EIVLTQSPATLSLSPGERATLSCRASQSVRSYLAWYQQKPGQAPRLLIYDASNRATGIPARFSGSGSGTDFTLTISSLEPEDFAVYYCQQRSNWPPTFGQGTKVEIK
B7: XENP37813 TBRII-A_H1.270_L1 (antibody, V domains shown)
VH: QLQVQESGPGLVKPSETLSLTCTVSGGSISSSYFSWGWIRQPPGKGLEWIGSFNYGGKTYYNPSLKSRATISIDTSKNQFSLKLSSVTAADTAVYYCARGPTLIRGVIDSWGQGTLVTVSS
VL: EIVLTQSPATLSLSPGERATLSCRASQSVRSYLAWYQQKPGQAPRLLIYDASNRATGIPARFSGSGSGTDFTLTISSLEPEDFAVYYCQQRSNWPPTFGQGTKVEIK
B8: TBRII-A_H1.30_L1 (antibody, V domains shown)
VH: QLQVQESGPGLVKPSETLSLTCTVSGGSISNSYFYWGWIRQPPGKGLEWIGSFYYGEKTYYNPSLKSRATISIDTSKSQFSLKLSSVTAADTAVYYCPRGPTMIRGVIDSWGQGTLVTVSS
VL: EIVLTQSPATLSLSPGERATLSCRASQSVRSYLAWYQQKPGQAPRLLIYDASNRATGIPARFSGSGSGTDFTLTISSLEPEDFAVYYCQQRSNWPPTFGQGTKVEIK
B9: XENP37818 TBRII-A_H1.190_L1.53 (antibody, V domains shown)
VH: QLQVQESGPGLVKPSETLSLTCTVSGGSISSSYFSWGWIRQPPGKGLEWIGSFYYGGKTYYNPSLKSRATISIDTSKNQFSLKLSSVTAADTAVYYCARGPTTIRGVIDSWGQGTLVTVSS
VL: EIVLTQSPATLSLSPGERATLSCRASQSVRSYLAWYQQKPGQAPRLLIYDASNRATGIPARFSGSGSGTDFTLTISSLEPEDFAVYYCQQRSNYPPTFGQGTKVEIK
B10: XENP37815 TBRII-A_H1.271_L1.53 (antibody, V domains shown)
VH: QLQVQESGPGLVKPSETLSLTCTVSGGSISSSYFSWHWIRQPPGKGLEWIGSFYYGGKTYYNPSLKSRATISIDTSKNQFSLKLSSVTAADTAVYYCARGPTLIRGVIDSWGQGTLVTVSS
VL: EIVLTQSPATLSLSPGERATLSCRASQSVRSYLAWYQQKPGQAPRLLIYDASNRATGIPARFSGSGSGTDFTLTISSLEPEDFAVYYCQQRSNYPPTFGQGTKVEIK
B11: XENP34306 H1.1 L1 (antibody, V domains shown)
VH: QLQVQESGPGLVKPSETLSLTCTVSGGSISNSYFSWGWIRQPPGKGLEWIGSFYYGEKTYYNPSLKSRATISIDTSKSQFSLKLSSVTAADTAVYYCPRGPTVIRGVIDSWGQGTLVTVSS
VL: EIVLTQSPATLSLSPGERATLSCRASQSVRSYLAWYQQKPGQAPRLLIYDASNRATGIPARFSGSGSGTDFTLTISSLEPEDFAVYYCQQRSNWPPTFGQGTKVEIK
B12: XENP35120 H1.29 L1 (antibody, V domains shown)
VH: QLQVQESGPGLVKPSETLSLTCTVSGGSISNSYFTWGWIRQPPGKGLEWIGSFYYGEKTYYNPSLKSRATISIDTSKSQFSLKLSSVTAADTAVYYCPRGPTMIRGVIDSWGQGTLVTVSS
VL: EIVLTQSPATLSLSPGERATLSCRASQSVRSYLAWYQQKPGQAPRLLIYDASNRATGIPARFSGSGSGTDFTLTISSLEPEDFAVYYCQQRSNWPPTFGQGTKVEIK
B13: XENP35121 H1.30 L1 (antibody, V domains shown)
VH: QLQVQESGPGLVKPSETLSLTCTVSGGSISNSYFYWGWIRQPPGKGLEWIGSFYYGEKTYYNPSLKSRATISIDTSKSQFSLKLSSVTAADTAVYYCPRGPTMIRGVIDSWGQGTLVTVSS
VL: EIVLTQSPATLSLSPGERATLSCRASQSVRSYLAWYQQKPGQAPRLLIYDASNRATGIPARFSGSGSGTDFTLTISSLEPEDFAVYYCQQRSNWPPTFGQGTKVEIK
B14: XENP35119 H1.21 L1 (antibody, V domains shown)
VH: QLQVQESGPGLVKPSETLSLTCTVSGGSISNSAFSWGWIRQPPGKGLEWIGSFYYGEKTYYNPSLKSRATISIDTSKSQFSLKLSSVTAADTAVYYCPRGPTMIRGVIDSWGQGTLVTVSS
VL: EIVLTQSPATLSLSPGERATLSCRASQSVRSYLAWYQQKPGQAPRLLIYDASNRATGIPARFSGSGSGTDFTLTISSLEPEDFAVYYCQQRSNWPPTFGQGTKVEIK
B15: XENP35126 H1.56 L1 (antibody, V domains shown)
VH: QLQVQESGPGLVKPSETLSLTCTVSGGSISNSYFSWGWIRQPPGKGLEWIGSFYYGGKTYYNPSLKSRATISIDTSKSQFSLKLSSVTAADTAVYYCPRGPTMIRGVIDSWGQGTLVTVSS
VL: EIVLTQSPATLSLSPGERATLSCRASQSVRSYLAWYQQKPGQAPRLLIYDASNRATGIPARFSGSGSGTDFTLTISSLEPEDFAVYYCQQRSNWPPTFGQGTKVEIK
B16: XENP35128 H1.50 L1 (antibody, V domains shown)
VH: QLQVQESGPGLVKPSETLSLTCTVSGGSISNSYFSWGWIRQPPGKGLEWIGSFKYGEKTYYNPSLKSRATISIDTSKSQFSLKLSSVTAADTAVYYCPRGPTMIRGVIDSWGQGTLVTVSS
VL: EIVLTQSPATLSLSPGERATLSCRASQSVRSYLAWYQQKPGQAPRLLIYDASNRATGIPARFSGSGSGTDFTLTISSLEPEDFAVYYCQQRSNWPPTFGQGTKVEIK
B17: XENP35124 H1.37 L1 (antibody, V domains shown)
VH: QLQVQESGPGLVKPSETLSLTCTVSGGSISNSYFSWGWVRQPPGKGLEWIGSFYYGEKTYYNPSLKSRATISIDTSKSQFSLKLSSVTAADTAVYYCPRGPTMIRGVIDSWGQGTLVTVSS
VL: EIVLTQSPATLSLSPGERATLSCRASQSVRSYLAWYQQKPGQAPRLLIYDASNRATGIPARFSGSGSGTDFTLTISSLEPEDFAVYYCQQRSNWPPTFGQGTKVEIK
B18: XENP35122 H1.33 L1 (antibody, V domains shown)
VH: QLQVQESGPGLVKPSETLSLTCTVSGGSISNSYFSWAWIRQPPGKGLEWIGSFYYGEKTYYNPSLKSRATISIDTSKSQFSLKLSSVTAADTAVYYCPRGPTMIRGVIDSWGQGTLVTVSS
VL: EIVLTQSPATLSLSPGERATLSCRASQSVRSYLAWYQQKPGQAPRLLIYDASNRATGIPARFSGSGSGTDFTLTISSLEPEDFAVYYCQQRSNWPPTFGQGTKVEIK
B19: XENP35123 H1.36 L1 (antibody, V domains shown)
VH: QLQVQESGPGLVKPSETLSLTCTVSGGSISNSYFSWSWIRQPPGKGLEWIGSFYYGEKTYYNPSLKSRATISIDTSKSQFSLKLSSVTAADTAVYYCPRGPTMIRGVIDSWGQGTLVTVSS
VL: EIVLTQSPATLSLSPGERATLSCRASQSVRSYLAWYQQKPGQAPRLLIYDASNRATGIPARFSGSGSGTDFTLTISSLEPEDFAVYYCQQRSNWPPTFGQGTKVEIK
B20: XENP35125 H1.51 L1 (antibody, V domains shown)
VH: QLQVQESGPGLVKPSETLSLTCTVSGGSISNSYFSWGWIRQPPGKGLEWIGSFNYGEKTYYNPSLKSRATISIDTSKSQFSLKLSSVTAADTAVYYCPRGPTMIRGVIDSWGQGTLVTVSS
VL: EIVLTQSPATLSLSPGERATLSCRASQSVRSYLAWYQQKPGQAPRLLIYDASNRATGIPARFSGSGSGTDFTLTISSLEPEDFAVYYCQQRSNWPPTFGQGTKVEIK
B21: XENP35127 H1.48 L1 (antibody, V domains shown)
VH: QLQVQESGPGLVKPSETLSLTCTVSGGSISNSYFSWGWIRQPPGKGLEWIGSFDYGEKTYYNPSLKSRATISIDTSKSQFSLKLSSVTAADTAVYYCPRGPTMIRGVIDSWGQGTLVTVSS
VL: EIVLTQSPATLSLSPGERATLSCRASQSVRSYLAWYQQKPGQAPRLLIYDASNRATGIPARFSGSGSGTDFTLTISSLEPEDFAVYYCQQRSNWPPTFGQGTKVEIK

The Kd is the constant that tells how readily two partners part at equilibrium. Lower therefore signals a tighter complex.

T1 sequence (P37173 23-166): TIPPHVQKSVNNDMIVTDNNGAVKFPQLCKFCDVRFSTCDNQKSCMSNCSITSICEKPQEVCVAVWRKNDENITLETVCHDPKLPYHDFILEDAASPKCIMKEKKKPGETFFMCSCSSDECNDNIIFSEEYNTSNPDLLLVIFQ

One assay has as its target T1, human TGFßRII (antigen of the Octet experiments) (human, UniProt P37173 23-166).
Assay: not given
In the case of B1, the Kd stood at 7.7 nM. On the same count and under the same terms, then B2, with 3.5 nM. Same read-out and setting: the same measure for B3: 4.2 nM; for B4: 46.6 nM; for B5: 58.9 nM. B6 came in with a Kd of 58.2 nM. B7 came in with a Kd of 31.6 nM. Still for that read-out and setting: then B8, with 14 nM; and B9, with 109 nM. Take B10: the Kd came out at 411 nM.

A further assay addresses T1, human TGFßRII (antigen of the Octet …). The assay can be described thus: Octet. (BLI is a label-free optical method that tracks binding on a fibre tip over time.)
The molecule B11 yielded a Kd of 4.02 nM. On the same count and under the same terms, the same measure for B12: 4.6 nM. B13: binding was put at a Kd of 10.3 nM.

B14 registered a Kd of 2.79 nM.

For B15, the Kd stood at 3.36 nM. The same measure, in the same setting: then B16, with 31.4 nM; and B17, with 2.63 nM; and B18, with 3.42 nM. In the case of B19, the Kd was found to be 5.1 nM. Turning to B20, the Kd was 23 nM. Turning to B21, the Kd came out at 35 nM.

Source of the values: patent publication US20220144956A1 (published 2022).
